Paper doi:10.1101/2025.01.07.631702 (bioRxiv, 2025)

B1: heavy-chain (HC-) FSAP (residues 24-291) (domain or fragment)
chain: FSLMSLLESLDPDWTPDQYDYSYEDYNQEENTSSTLTHAENPDWYYTEDQADPCQPNPCEHGGDCLVHGSTFTCSCLAPFSGNKCQKVQNTCKDNPCGRGQCLITQSPPYYRCVCKHPYTGPSCSQVVPVCRPNPCQNGATCSRHKRRSKFTCACPDQFKGKFCEIGSDDCYVGDGYSYRGKMNRTVNQHACLYWNSHLLLQENYNMFMEDAETHGIGEHNFCRNPDADEKPWCFIKVTNDKVKWEYCDVSACSAQDVAYPEESPTEP
modifications: labelled with the Monolith protein labelling kit RED-NHS (in the MST only)

Experiments:
[1] = biological target: heavy-chain (HC-) FSAP (residues 24-291) (human) (UniProt Q14520); assay: MST
[2] = biological target: the molecule itself; assay: dynamic light scattering

Molecule	Kd [1]	binding result [2]
Histone-H1 (natural protein)	2000 nM	–
B1	–	binds
